This passage reports switch fluorescence ratio results from the supplement of paper PMC10126150.

This data set relates to ATP. The experiment in a line: switch fluorescence ratio, 500 uM ATP over buffer (Cy3 cluster intensity, sum of 5 cycles each) (fold (ratio)); higher = stronger signal-on switching upon ATP binding; sequences stand for … in TCGTCGGCAGCGTCAGATGTGTATAAGAGACAGTTTTTTTTTTTTTTTTTTTTTTTTT…TC. To be noted: aptamer strand: ATP DNA aptamer (quencher-CACCTGGGGGAGTATTGCGGAGGAAGG + anchor), 100 nM annealed; ATP concentration: 500 uM. The method, boiled down:
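The quencher-labelled ATP aptamer, at 100 nM, was annealed to Cy3-labelled switching-strand clusters on a modified Illumina MiSeq flow-cell. The clusters were imaged in selection buffer, then after 15 min with 500 uM ATP at 22 °C, and this buffer/ATP cycle ran five times with NaOH stripping and re-annealing between runs. Per-cluster fluorescence ratios, summed target-cycle over summed buffer-cycle Cy3 intensity, were averaged per switch-domain sequence. Clusters outside 100-1000 RFU were excluded.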

± gives the standard deviation of the averaged measurements.
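Also: ATP exposure 15 min at 22 °C before imaging.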

GCTATTTGCG: the switch fluorescence ratio was found to be 1 ± 0.022.

Turning to GCTATTTTTC, the switch fluorescence ratio came out at 1 ± 0.042.

In the case of GCTCAATTGA, the switch fluorescence ratio came to 1.004 ± 0.01.

Consider GCTCACTGTG, for which the switch fluorescence ratio amounted to 1.037 ± 0.0034.

As for GCTCAGGCTG, the switch fluorescence ratio amounted to 1.02 ± 0.024.

Regarding GCTCAGTTTG, the switch fluorescence ratio is 0.992 ± 0.013.

With GCTCATGGTT, the switch fluorescence ratio worked out at 1.03 ± 0.046.

With GCTCCATCGA, the switch fluorescence ratio stood at 1.11 ± 0.015.

On to GCTCCTAGCT, for which the switch fluorescence ratio worked out at 1.07 ± 0.028.

On to GCTCGACCCT, for which the switch fluorescence ratio amounted to 1.07 ± 0.039.

Take GCTCGCGTGG: the switch fluorescence ratio was 0.956 ± 0.025.

With GCTCGGGGTT, the switch fluorescence ratio amounted to 1.01 ± 0.011.

In the case of GCTCGTAACT, the switch fluorescence ratio was determined as 1 ± 0.0065.

On to GCTCGTAGGC, for which the switch fluorescence ratio was 0.99 ± 0.054.

Consider GCTCTAGGGA, for which the switch fluorescence ratio is 0.984 ± 0.043.

GCTCTCAGGT: the switch fluorescence ratio is 1.12 ± 0.043.

Regarding GCTCTCGGTG, the switch fluorescence ratio was 1.01 ± 0.017.

Turning to GCTCTGTTGG, the switch fluorescence ratio amounted to 1.01 ± 0.048.

GCTCTTAAGG: the switch fluorescence ratio worked out at 0.982 ± 0.051.

On to GCTGAAATTT, for which the switch fluorescence ratio is 1.01 ± 0.056.

For GCTGAAGGAT, the switch fluorescence ratio came out at 1 ± 0.0058.

As to GCTGAATTGG, the switch fluorescence ratio is 1.04 ± 0.053.

Take GCTGACATTC: the switch fluorescence ratio is 0.992 ± 0.04.

Regarding GCTGACGTTA, the switch fluorescence ratio was determined as 1.1 ± 0.011.

For GCTGAGAGGC, the switch fluorescence ratio was 1 ± 0.038.

With GCTGAGGATG, the switch fluorescence ratio is 0.9799 ± 0.0058.

In the case of GCTGAGGCTT, the switch fluorescence ratio worked out at 0.9593 ± 0.0019.

Take GCTGATGACT: the switch fluorescence ratio was determined as 0.9918 ± 0.0063.

Regarding GCTGATGGGC, the switch fluorescence ratio is 1.05 ± 0.044.

Regarding GCTGATGTAT, the switch fluorescence ratio was 0.999 ± 0.026.

In the case of GCTGCAAGGG, the switch fluorescence ratio amounted to 1.07 ± 0.063.

As to GCTGCAGGGC, the switch fluorescence ratio turned out to be 1.37 ± 0.44.

For GCTGCGCATT, the switch fluorescence ratio is 1.94 ± 0.028.

For the sequence GCTGCGGGCC, the switch fluorescence ratio is 1.02 ± 0.033.

For the sequence GCTGCGGGGT, the switch fluorescence ratio amounted to 0.993 ± 0.045.

Consider GCTGCTGGGT, for which the switch fluorescence ratio came to 1.01 ± 0.032.

As to GCTGGAGGAA, the switch fluorescence ratio turned out to be 1.07 ± 0.018.

With GCTGGATCCG, the switch fluorescence ratio is 1.07 ± 0.11.

Take GCTGGCCGGT: the switch fluorescence ratio is 0.989 ± 0.021.

Consider GCTGGCTCGT, for which the switch fluorescence ratio was found to be 1.01 ± 0.013.

In the case of GCTGGGAGGT, the switch fluorescence ratio worked out at 0.984 ± 0.02.

With GCTGGGCTTG, the switch fluorescence ratio was determined as 0.9947 ± 0.0033.

As to GCTGGGGAAG, the switch fluorescence ratio turned out to be 1.02 ± 0.019.

Consider GCTGGGGATA, for which the switch fluorescence ratio was 1.03 ± 0.032.

As for GCTGGGGCGG, the switch fluorescence ratio is 0.98 ± 0.029.

As to GCTGGGGGGA, the switch fluorescence ratio was found to be 0.981 ± 0.033.

Regarding GCTGGGGTAT, the switch fluorescence ratio stood at 0.984 ± 0.015.

With GCTGGGGTGG, the switch fluorescence ratio is 1.01 ± 0.05.

In the case of GCTGGTAATG, the switch fluorescence ratio was found to be 1.01 ± 0.021.

On to GCTGGTTTGG, for which the switch fluorescence ratio is 0.972 ± 0.052.

Turning to GCTGGTTTGT, the switch fluorescence ratio worked out at 0.989 ± 0.013.

With GCTGTAAAAA, the switch fluorescence ratio is 1.08 ± 0.063.

Turning to GCTGTAAATT, the switch fluorescence ratio stood at 0.982 ± 0.019.

With GCTGTAATAT, the switch fluorescence ratio was 1.11 ± 0.015.

On to GCTGTAGCGC, for which the switch fluorescence ratio is 1.06 ± 0.035.

Regarding GCTGTAGGAT, the switch fluorescence ratio is 0.984 ± 0.017.

For the sequence GCTGTAGGTC, the switch fluorescence ratio was determined as 1.04 ± 0.013.

With GCTGTTAATG, the switch fluorescence ratio was found to be 0.984 ± 0.006.

On to GCTGTTTGAT, for which the switch fluorescence ratio came to 0.959 ± 0.04.

In the case of GCTGTTTGCT, the switch fluorescence ratio was found to be 1.01 ± 0.034.

As for GCTGTTTTGG, the switch fluorescence ratio turned out to be 0.965 ± 0.027.

In the case of GCTGTTTTTA, the switch fluorescence ratio turned out to be 0.981 ± 0.022.

On to GCTTAAATTT, for which the switch fluorescence ratio worked out at 1 ± 0.016.

As for GCTTACGGTG, the switch fluorescence ratio is 1.01 ± 0.02.

Turning to GCTTAGTGTC, the switch fluorescence ratio worked out at 0.975 ± 0.043.

Take GCTTATAATG: the switch fluorescence ratio amounted to 0.997 ± 0.031.
